Data as given in US20220226430A1.
“And” between values parts separate entries of the source, which are not always exact repeats. Identical values can stand only once.

Target: TcdB from C. difficile strain M68 (Clostridium difficile strain M68)
Test: cell-based or functional assay

Binder | fold higher neutralization activity than D16 alone | EC50 against TcdB (in vitro neutralization) | TcdB neutralization EC50 (Vero cells, CellTiterGlo) | fold more efficacious than bezlotoxumab at inhibiting TcdB (CellTiter-Glo assay)
dimeric DARPin U3D16 (designed binder) GSDLGKKLLEAARAGQDDEVRILMANGADVNADDRIGMTPLHLAAIGGHLEIVEVLLKNGADVNADDVHGRTPLHLAAGRGHLEIVEVLHGADVNAPDRWGRTPLHLAAHHGHLEIVEVLLKYGADVNAQDKFGKTAFDISIDSGNEDLAEILQSSSGGGGSGGGGSGGGGSGSDLGKKLLEAARAGQDDEVRILMANGADVNAADRYGPTPLHLAAYRGHLEIVEVLLKHGADVNAKDVLGWTPLHLAAWIGHLEIVEVLLKNGADVNARDRTGETPLHLAAAIGHLEIVEVLLKNGADVNAQDKFGKTAFDISIDNGNEDLAEILQSSS | 10 fold and 20 fold | – | – | –
DARPin dimer DLD-4 (designed binder) GSDLGKKLLEAARAGQDDEVRILMANGADVNADDRIGMTPLHLAAIGGHLEIVEVLLKNGADVNADDVHGRTPLHLAAGRGHLEIVEVLHGADVNAPDRWGRTPLHLAAHHGHLEIVEVLLKYGADVNAQDKFGKTAFDISIDNGNEDLAEILQSSSEFGGGGSGGGGSGGGGSASDLGKKLLEAARAGQDDEVRILMANGADVNATDHLGVTPLHLAAVLGHLEIVEVLLKHGADVNAYDILGRTPLHLAAWRGHLEIVEVLLKYGADVNADDTSGTTPLHLAAGEGHLEIVEVLLKYGADVNAQDKFGKTAFDISIDNGNEDLAEILQSSS | – | 0.02 nM | 0.016 nM | 33 fold
